Values quoted from earlier work in article PMC9601870.

Target: Cys32 (UniProt position 33, FWAEWCGPCKM)
Conditions: not stated (thiol ionisation implies the reduced dithiol form; inferred)

Thioredoxin 1 (Trx) (Escherichia coli)
pKa: 7.1–7.4
